Our source for the protein production values is a protein production outcome set (Wang et al. 2014).

A short description of the data set: label from the status in PepcDB records.
For the sequence “MSLSVEFNKQQVRPRSEISPQDCWDITPLYLNRKAWKADLDSFGLKTDGSPTWPALQATQYQLDNSESLLSLLTTLFSIERKLNKLYVYAHLTHDQDITNQEGIADLKSITHLHTLFAEETSWVQPALTSLSESLIAQHLSAPCLAPYRFYLEKIFRLSIHTGTPGEEKILASAFTPLEVASKAFSSLSDSEIPFGQATDSEGNSHPLSHALASLYMQSTDRELRKTSYLAQCERYHSYRHTFANLLNGKIQAHVFYAKNKRYNSCLQAALYHNNIPTTVYTNLIDIVKKNSSLITKYFSIKQRCLNLKDFHFYDVYAPLSQSKEKKYTFQEAVDLIYTSLSPLGTEYIDTLKQGLTTQGWVDKYENLNKRSGAYSSGCYDSHPYVLLNYTGTLYDVSVIAHEGGHSMHSYFSRKHQPFHDAQYPIFLAEIASTLNEMLLMDSMLKESDSKEEKITILTRCLDTIFSTLFRQVLFASFEYDIHHAAEHGVPLTEEYLSSTYKNLQNEFYGEIITFDVLSNIEWARIPHFYYNFYVYQYATGIIAALCFLEKILNNEDNALNSYLNFLKSGGSDFPLEILKKSGLDMGTVEPIQKAFCFIEKKIQELSSLIEGHHHHHH”, the protein production result is on record as “not failed”.

For “MSLSYLTEEKLTIVGAAGMIGSNMAQTAAMMRLTPNLCLYDPFAVGLEGVAEEIRHCGFEGLNLTFTSDIKEALTDAKYIVSSGGAPRKEGMTREDLLKGNAEIAAQLGKDIKSYCPDCKHVIIIFNPADITGLVTLIYSGLKPSQVTTLAGLDSTRLQSELAKHFGIKQSLVTNTRTYGGHGEQMAVFASTAKVNGTPLTDLIGTDKLTNEQWAELKQRVVKGGANIIKLRGRSSFQSPSYVSIEMIRAAMGGEAFRWPAGCYVNVPGFEHIMMAMETTITKDGVKHSDINQLGNEAERAALKESYSHLAKLRDEVIAMGIIPAIADWKTVNPNEGHHHHHH”, the protein production result is recorded as “not failed”.

Consider “MSLTAQIRLAEPADLNDDTLRARAVAAARGDQRFDVLITGGTLVDVVTGELRPADIGIVGALIASVHEPASRRDAAQVIDAGGAYVSPGLIDTHMHIESSMITPAAYAAAVVARGVTTIVWDPHEFGNVHGVDGVRWAAKAIENLPLRAILLAPSCVPSAPGLERGGADFDAAILADLLSWPEIGGIAEIMNMRGVIERDPRMSGIVQAGLAAEKLVCGHARGLKNADLNAFMAAGVSSDHELVSGEDLMAKLRAGLTIELRGSHDHLLPEFVAALNTLGHLPQTVTLCTDDVFPDDLLQGGGLDDVVRRLVRYGLKPEWALRAATLNAAQRLGRSDLGLIAAGRRADIVVFEDLNGFSARHVLASGRAVAEGGRMLVDIPTCDTTVLKGSMKLPLRMANDFLVKSQGAKVRLATIDRPRFTQWGETEADVKDGFVVPPEGATMISVTHRHGMAEPTTKTGFLTGWGRWNGAFATTVSHDSHNLTVFGGNAGDMALAANAVIGTGGGMAVASEGKVTAILPLPLSGLVSDAPLEEVARAFEDLREAVGKVVEWQPPYLVFKACFGATLACNIGPHQTDMGIADVLTGKVMESPVIEVLGEGHHHHHH”, for which the protein production entry is “not failed”.

Regarding “MSLTEEFVNKEDALKNYNAKEFRTPDGYTSDMILTTVKELNGKPTLHILLIKRSLTNAEGKPNMEGGKWAVPGGFVDENESAEQAAERELEEETSLTDIPLIPFGVFDKPGRDPRGWIISRAFYAIVPPEALEKRAAGDDAAEIGLFPMTEALELPLAFDHLDMLKKAFSAITEEFLLTEGHHHHHH”, the protein production result is listed as “not failed”.

Regarding “MSLTESARIDGVSLYEIVIPMKIPFQISSGTCYTRRSLVVEIREGDLFGYGESAPFEEPFYLGETLETTKVILKNHLLPMILGKEPLSIEEFNHLIKNGIRGNHFARCGVENAYWDLIAKKNKISLKAMIEKKMKNLGVKQEYLASNNYIESGAALGIPEDGRIETLIHQVEESLQEGYRRIKIKIKPGWDVEPLQETRRAVGDHFPLWTDANSSFELDQWETFKAMDAAKCLFHEQPLHYEALLDLKELGERIETPICLDESLISSRVAEFVAKLGISNIWNIKIQRVGGLLEAIKIYKIATDNGIKLWGGTMPESGLGARFLISLASFRGFVFPADVAASEKWYGKGNDLVENTMTDGKIYVPDEPGASFDMTLSHLEALGKKIWESQRGEGHHHHHH”, the protein production entry is given as “not failed”.

On to “MSLTGFWHDDFNNATPNDICVAIRSEAADAGIAQAIMQQLEEALKQLAQGSGSSQALTQVRRWDSACQKLPDANLALISVAGEYAAELANQALDRNLNVMMFSDNVTLEDEIQLKTRAREKGLLVMGPDCGTSMIAGTPLAFANVMPEGNIGVIGASGTGIQELCSQIALAGEGITHAIGLGGRDLSREVGGISALTALEMLSADEKSEVLAFVSKPPAEAVRLKIVNAMKATGKPTVALFLGYTPAVARDENVWFASSLDEAARLACLLSRVTARRNAIAPVSSGFICGLYTGGTLAAEAAGLLAGHLGVEADDTHQHGMMLDADSHQIIDLGDDFYTVGRPHPMIDPTLRNQLIADLGAKPQVRVLLLDVVIGFGATADPAASLVSAWQKACAARLDNQPLYAIATVTGTERDPQCRSQQIATLEDAGIAVVSSLPEATLLAAALIHPLSPAAQQHTPSLLENVAVINIGLRSFALELQSASKPVVHYQWSPVAGGNKKLARLLERLQGHPHHH”, for which the protein production entry is on record as “not failed”.

“MSLTKLYYEDQYIKEFKGEIIEVKEIDGKFHVLLDQTAFFPGGGGQMGDLGLIDGIKVLDVYEEEGKVYHVLEKEPKKLKNLQCELDWERRFDGMQQHLGQHLLSGCFYDLFGANTCGFHLGKEISTVDIVGFLDEKTIREAEKEANRLIFENLEVKSYAPSKKELKKVKTRRALPKTDEEIRIVEIVGLDLNACCGVHPRNTRDLQVIKIRRWEKHKNATRIEYVAGNRAVSEGHHHHHH”: the protein production entry is listed as “not failed”.

For the sequence “MSLTLRVVPELYCFDINVSQSFFVDVLGFEVKYERPDEEFVYLTLDGVDVMLEGIAGKSRKWLSGDLEFPLGSGVNFQWDVIDIEPLYQRVNESAADSIYLALESKSYQCGDSIATQKQFMVQTPDGYLFRFCQDIHEGHHHHHH”, the protein production entry is “not failed”.

Take “MSLTPTVMVVDESRITFLAVKNALEKDGFNVIWAKNEQEAFTFLRREKIDLVFVDVFEGEESLNLIRRIREEFPDTKVAVLSAYVDKDLIINSVKAGAVDYILKPFRLDYLLERVKKIISSTPRVTVSLRKNIEEGHHHHHH”: the protein production result was “not failed”.

Turning to “MSLTPYEPFRHLDQMRREFDRFFPDFPIDLPNRHLTLSPKMDVHETDHEVILECDIPGLESKEDLQIDVEPRSVRIEGRIKRSKEVHDERFYRREREIGHFRRVVPLPAEVAEDDIRAAYRNGVLEVRMRKRLDDRRRTIDVEFHLEHHHHHH”, the protein production result is recorded as “not failed”.

Regarding “MSLTRTQPVELVTMVMVTDPETQRVLVEDKVNVPWKAGHSFPGGHVEVGEPCATAAIREVFEETGLRLSGVTFCGTCEWFDDDRQHRKLGLLYRASNFTGTLKASAEGQLSWLPITALTRENSAASLPEFLQVFTGTASTLVSDSWNGNLRIDEGHHHHHH”, the protein production entry was “not failed”.

“MSLTTMLEVAKRAGVSKATVSRVLSGNGYVSQETKDRVFQAVEESGYRPNLLARNLSAKSTQTLGLVVTNTLYHGIYFSELLFHAARMAEEKGRQLLLADGKHSAEEERQAIQYLLDLRCDAIMIYPRFLSVDEIDDIIDAHSQPIMVLNRRLRKNSSHSVWCDHKQTSFNAVAELINAGHQEIAFLTGSMDSPTSIERLAGYKDALAQHGIALNEKLIANGKWTPASGAEGVEMLLERGAKFSALVASNDDMAIGAMKALHERGVAVPEQVSVIGFDDIAIAPYTVPALSSVKIPVTEMIQEIIGRLIFMLDGGDFSPPKTFSGKLIRRDSLIAPSREGHHHHHH”: the protein production result was “not failed”.

Turning to “MSLTTSHFIPFPREMVWDWHTRKGAVARLTPPFIPLNPITQAERLADGTTIFSLPAGLKWVARHDLSGFLNGSRFTDVCLTAPVKALANWRHVHNFVDQDGGTLITDSVSTRLPASTLTGMFAYRQTQLIEDLKFLSRTSTLFDGSPLTVAITGSRGLVGRALTAQLQTGGHEVIQLVRKEPKPGKRFWDPLNPASDLLDGADVLVHLAGEPIFGRFNDSHKEAIRESRVLPTKFLAELVAESTQCTTMISASAVGFYGHDRGDEILTEESESGDDFLAEVCRDWEHATAPASDAGKRVAFIRTGVALSGRGGMLPLLKTLFSTGLGGKFGDGTSWFSWIAIDDLTDIYYRAIVDAQISGPINAVAPNPVSNADMTKILATSMHRPAFIQIPSLGPKILLGSQGAEELALASQRTAPAALENLSHTFRYTDIGAAIAHELGYEQLADFAQQQEIEAERKQERAELKAAKKIAKKAPVLEESPTNLEDPEEVEQSILSSILNFRRKRNDLEHHHHHH”, the protein production entry is “not failed”.

With “MSLVGKTLSGRYRVVRPLARGALARVYLAFDPFGTPYALKLFPPKARPRRDRELWVGRRLAHPNLNPVLEALDLEEGPALLLAYAPGEELGRWMGKSPAFSQAMRVFHQLLLALAHMHEKGLVHRDVKPENILVNAGEARLLDFDLSGPAQERFQKPLLLGTPAYLAPELLRGLPSGPEADVYAAGIILYWMLTGEHPFADPSGRVSLDPDRGPHPPVAGLGEEAALYLERLLAPDPKARFPTAQEALKAFPF”, the protein production entry is listed as “failed”.

In the case of “MSLVLMAQATKPEQLQQLQTTYPDWTFKDAAAVTAADYDQIEVMYGNHPLLKTILARPTNQLKFVQVISAGVDYLPLKALQAAGVVVANTSGIHADAISESVLAAMLSVVRGYHAAWLNQRGARQWALPMTTSTLTGQQLLIYGTGQIGQSLAAKASALGMHVIGVNTTGHPADHFHETVAFTATADALATANFIVNALPLTPTTHHLFSTELFQQTKQQPMLINIGRGPAVDTTALMTALDHHQLSMAALDVTEPEPLPTDHPLWQRDDVLITPHISGQIAHFRATVFPIFAANFAQFVKDGTLVRNQVDLNRGYEGHHHHHH”, the protein production entry is reported as “not failed”.

For “MSLVMSGEKMKVIIVEDEFLAQQELSWLINTHSQMEIVGSFDDGLDVLKFLQHNKVDAIFLDINIPSLDGVLLAQNISQFAHKPFIVFITAWKEHAVEAFELEAFDYILKPYQESRIINMLQKLTTAWEQQNNAAEGHHHHHH”, the protein production entry is given as “not failed”.

As for “MSLVVFLIAYVIRRRLDRADHLAGDEVWRNWFHRWGRVEAGQERSVWRGALLVVLPSLALAGAWALSSEAGYRYALYPLELVLMVVLMGAPGWRKVLRAYSDAWRRGDMQAAWHHVQERLPASERGAALSPEAMHLSVSRALMVSVFERFFLVVFWYAVGGIALAFLARGLVALAGQWPQAAARERYQRAARLIGWIPSRLLSCTFGLAGDLAGWSREIRKVFPGFGKKTADVLMISANGSLTGYALDPARFSELHPEEWPDFGGRSLSAIRDLLNRSMLVWICAFALLVIAGMA”, the protein production result is given as “failed”.

As to “MSLYEWLNALPKAELHLHLEGTLEPELLFALAERNRIALPWNDVETLRKAYAFNNLQEFLDLYYAGADVLRTEQDFYDLTWAYLQKCKAQNVVHVEPFFDPQTHTDRGIPFEVVLAGIRAALRDGEKLLGIRHGLILSFLRHLSEEQAQKTLDQALPFRDAFIAVGLDSSEVGHPPSKFQRVFDRARSEGFLTVAHAGEEGPPEYIWEALDLLKVERIDHGVRAFEDERLMRRLIDEQIPLTVCPLSNTKLCVFDDMSQHTILDMLERGVKVTVNSDDPAYFGGYVTENFHALQQSLGMTEEQARRLAQNSLDARLVKEGHHHHHH”, the protein production result was “not failed”.

For the sequence “MSMATPSSAQRFNDRVAAYVRYRPSYPPQLLRWLHGELGVTPATAVADIGAGTGISSRLFLEAGYAVTAVEPNQAMREAALQWLAEFPKFQAIDGTAEATGLADASVGLVSAAQAFHWFDMQAVRDEWARILQPGGLAVVYWNSRELDSTAFLRGYEQLLLDYGTDYSAVAERYQDDATMQAWFGEGFRAMARFPNVQRLDFESLRGRLLSSSYAPLAHDPRHAPMLAALRTLFDAYAHDGLIDFQYQTRVFAGRLN”, the protein production result is on record as “failed”.

“MSMNQFRTMEEEKQDGGELFHTIEVAKVDRNNVSQPPPAATAALLEVPGDELNLIPPLNFSMVDNGIFRSGFPDSANFSFIKTLGLRSIISLCPEPYPENNMQFLKSNGISLFQFGIEGSKSKEPFVDILDQKIREALKVLLDEKNHPLLIHCKRGKHRTGCLVGCMRKLQKWCITSILDEYKRFAAAKARVSDQRFLESFDVSGLKHTPMSFSCSNR”: the protein production result is “failed”.
